Key:
[1] = target: PHF2(1–451), N-terminal half of human PHF2 with the PHD and Jumonji domains (residues 1–451) (human) (UniProt O75151); experiment: ITC
[2] = target: PHF2(1–70), PHD domain of human PHF2 (residues 1–70) (human) (UniProt O75151); experiment: ITC
PHF2(1–70), PHD domain of human PHF2 (residues 1–70) (human), sequence (O75151 1-70): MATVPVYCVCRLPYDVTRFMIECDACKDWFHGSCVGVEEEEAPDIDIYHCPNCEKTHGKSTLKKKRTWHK

PHF2(1–451), N-terminal half of human PHF2 with the PHD and Jumonji domains (residues 1–451) (human), sequence (O75151 1-451): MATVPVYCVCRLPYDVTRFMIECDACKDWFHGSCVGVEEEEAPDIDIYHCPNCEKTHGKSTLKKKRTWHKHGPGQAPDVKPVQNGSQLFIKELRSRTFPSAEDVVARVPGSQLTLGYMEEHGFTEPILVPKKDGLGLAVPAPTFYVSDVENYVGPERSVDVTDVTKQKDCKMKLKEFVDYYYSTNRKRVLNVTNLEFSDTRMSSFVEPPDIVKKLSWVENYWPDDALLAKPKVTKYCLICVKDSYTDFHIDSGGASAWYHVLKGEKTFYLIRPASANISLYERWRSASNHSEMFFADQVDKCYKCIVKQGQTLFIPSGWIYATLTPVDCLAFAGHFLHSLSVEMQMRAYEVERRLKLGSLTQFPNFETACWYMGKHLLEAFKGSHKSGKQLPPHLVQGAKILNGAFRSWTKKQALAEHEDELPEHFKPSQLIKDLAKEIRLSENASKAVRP

Question: What does the source list for “VRK1(1-12)K4me3 peptide (12-mer of the N-terminus of vaccinia-related kinase 1, trimethylated at lysine 4)”?
Answer: Kd [1]: 42 nM; Kd [2]: 900 nM
